Laboratory results published in IntAct's records for PubMed 19395483.

B1: ATP-dependent protease ATPase subunit HslU (Escherichia coli (strain K12)), P0A6H5 (parent)
chain: MSEMTPREIVSELDKHIIGQDNAKRSVAIALRNRWRRMQLNEELRHEVTPKNILMIGPTGVGKTEIARRLAKLANAPFIKVEATKFTEVGYVGKEVDSIIRDLTDAAVKMVRVQAIEKNRYRAEELAEERILDVLIPPAKNNWGQTEQQQEPSAARQAFRKKLREGQLDDKEIEIDLAAAPMGVEIMAPPGMEEMTSQLQSMFQNLGGQKQKARKLKIKDAMKLLIEEEAAKLVNPEELKQDAIDAVEQHGIVFIDEIDKICKRGESSGPDVSREGVQRDLLPLVEGCTVSTKHGMVKTDHILFIASGAFQIAKPSDLIPELQGRLPIRVELQALTTSDFERILTEPNASITVQYKALMATEGVNIEFTDSGIKRIAEAAWQVNESTENIGARRLHTVLERLMEEISYDASDLSGQNITIDADYVSKHLDALVADEDLSRFIL
partner: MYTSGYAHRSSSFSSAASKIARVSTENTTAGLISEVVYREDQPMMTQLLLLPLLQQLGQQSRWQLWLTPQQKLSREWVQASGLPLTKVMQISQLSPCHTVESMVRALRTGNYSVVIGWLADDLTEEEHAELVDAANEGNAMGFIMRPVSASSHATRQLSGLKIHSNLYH

Variants of: B1
Conditions: with sula_ecoli sulA

Q: I186N was tested. Which “effect of a mutation on the interaction” value did it give?
A: disrupting interaction strength

Q: Which “effect of a mutation on the interaction” value does the source give for V89I here?
A: increasing interaction strength
